This note sets out measurements from the supplement of paper PMC9170038.

This data set deals with MS2 coat protein. In words: apparent KD of MS2 coat protein; higher = weaker reporter binding. The following applies: Eterna round: R107. As for the experimental part:
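RNA-MaP round R107: designed RNA switches with theophylline, tryptophan, arginine or FMN aptamers are transcribed on-chip within common flanks. They are titrated with SNAP-549-labelled MS2 coat protein in RNA-MaP buffer (100 mM Tris pH 7.5, 80 mM KCl, 4 mM MgCl2), without ligand or with the indicated ligand. Median apparent KD per design.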

[1] abbreviates: input ligand: theophylline 20 uM.
[2] abbreviates: input ligand: theophylline 2 mM.
Where [3] appears, read: input ligand: tryptophan 2.4 mM.

As for “AACAUGAGGAUCACCCAUGUGUCCUCGAAACGAGGACCGGUACGGCCGCCACUCGGCGUAUGUUGACGAAAAGUCAGCAUACGCA [Mat - Exclusion - Trytophan A - D11]”, the “apparent KD of MS2 coat protein” value is, setting by setting: (input ligand: arginine 13.2 mM) 81.8 nM; under setting [1], 209 nM; under setting [2], 255 nM.
In the case of “AACCGAGGCUAUCCUCUCCGACUAUGUGAUACCAGAAUAAUUUUAUUCCCUUGGCAGCAUGACAUGAGGAUCACCCAUGUCUCUU [SSTheo A #10]”, the “apparent KD of MS2 coat protein” value came out at 16 nM (input ligand: arginine 13.2 mM), 18 nM under setting [1] and 15.9 nM under setting [3].
In the case of “AAGCUGGGUGUAAAAUAAAUAAUCACUGAUACCAGACUAUGAGAUGUCCCUUGGCAGCAGAAACAUGAGGAUCACCCAUGUAAUA [JR_Nu_ExcTheophyA_Sub027]”, the “apparent KD of MS2 coat protein” value came to 21.4 nM (input ligand: arginine 13.2 mM), 25.5 nM under setting [1] and 27.1 nM under setting [3].
For “AAGGGAGAAUCAGAUACCAGAGUAAGAUGGCAUGAUAAUUACAUGAGGAUCACCCAUGUACUCCCUUGGCAGCUGACAAUAUAUU [Exclusion Theophylline B GF 18]” the same measures were 12.5 nM, 13.2 nM and 10.3 nM.
As for “AAGGUGAUCCCAGAUACCAGCUUAACAUGAGGAUCACCCAUGUAUGGGACGAAAGUCCCGGGCCCUUGGCAGCUGGGUUGCCAAG [SSTheo B #16]”, the “apparent KD of MS2 coat protein” value runs as follows: (input ligand: arginine 13.2 mM) 43.6 nM; (input ligand: none) 224 nM; under setting [1], 427 nM; under setting [2], 64.9 nM; under setting [3], 170 nM.
Consider “AAGGUGAUCCGUGAUACCAGCUCAACAUGAGGAUCACCCAUGUAACGGACGAAAGUCCGGAGCCCUUGGCAGCACGGUAAUAAUA [(M)'-(Theo1)-(Ms2)-(Theo2)-(M'')_Design2b]”, for which the “apparent KD of MS2 coat protein” value reads like this: (input ligand: arginine 13.2 mM) 10.4 nM; under setting [1], 15.1 nM; under setting [3], 11.6 nM.
Consider “AAGGUGAUCCGUGAUACCAGCUCAACAUGAGGAUCACCCAUGUACGGGACGAAAGUCCCGGGCCCUUGGCAGCACGGUUGCCAAG [SSTheo B #20]”, for which the “apparent KD of MS2 coat protein” value was 53.2 nM (input ligand: arginine 13.2 mM); 89.8 nM (input ligand: none); 239 nM under setting [1]; 93.7 nM under setting [2]; 109 nM under setting [3].
For the sequence “AAGUCAGGAGGCGAUACCAGUUACGACAUGGCCAGUUACAUGAGGAUCACCCAUGUGCGGAACCCUUGGCAGCGCUUACAUCGCU [theeternabot_exclusion_MS2_Theo_B_1]”, the “apparent KD of MS2 coat protein” value was determined as 22.5 nM (input ligand: arginine 13.2 mM), 47 nM under setting [1] and 24.4 nM under setting [3].
Regarding “AAUAAUAAGAAUAACGUACCAGGUGAUCAACGAGGACCGGUACGGCCGCCACUCGAAACAUGAGGAUCACCCAUGUAAUAACAAU [|T'-M'-Trp-Ms2|_Design 2_OL]”, the “apparent KD of MS2 coat protein” value amounted to 39.7 nM (input ligand: arginine 13.2 mM), 107 nM under setting [1] and 124 nM under setting [2].
“AAUAUAUAGACGGCCGCCACUGGAACCAAUACAUGAGGAUCACCCAUGUGAAAAGGAUAGGUUCACAGGACCGGGUCUUCAUGUA [SS Tryp B Tesla 1.3]”: the “apparent KD of MS2 coat protein” value by setting is: (input ligand: arginine 13.2 mM) 40.5 nM; under setting [1], 33.1 nM; under setting [2], 61 nM.
Regarding “AAUCAUGAAAACAUGACAUGAGGAUCACUCCGAGGACCGGUACGGCCGCCACUCGCGAGGAGGCGGACAUGAGGAUCACCCAUGU [#02 Tryptophan A Same State]”, the “apparent KD of MS2 coat protein” value (input ligand: arginine 13.2 mM) was 49.2 nM, the “apparent KD of MS2 coat protein” value under setting [1] amounted to 265 nM and the “apparent KD of MS2 coat protein” value under setting [2] is 421 nM.
As for “AAUCAUGGAAACAUGACAUGAGGAUUACUCCGAGGACCGGUACGGCCGCCACUCGCGAGGAGGCGGACAUGAGGAUCACCCAUGU [#03 Tryptophan A Same State]”, the “apparent KD of MS2 coat protein” value by setting is: (input ligand: arginine 13.2 mM) 55.8 nM; under setting [1], 208 nM; under setting [2], 189 nM.
For “AAUUCCUCACAUGAGGAUCACCCAUGUGAAGGAGCGCCGAAUAAGGCAGGUAGGUCGCACAUGGAAACCGCUACGAAAGUAGUAA [XArg-A 2 NuV2]”, the “apparent KD of MS2 coat protein” value was found to be 18.7 nM (input ligand: arginine 13.2 mM); 19.9 nM (input ligand: none); 25.3 nM under setting [1]; 22.1 nM under setting [2]; 19.2 nM under setting [3].
In the case of “AAUUGAAACAGAGGUAUAUACGGACAUUACCGAGGACCGGUACGGCCGCCACUCGACCUAAAACAUGAGGAUCACCCAUGUAGCA [theeternabot_exclusion_MS2_Trp_A_20]”, the “apparent KD of MS2 coat protein” value is 12.6 nM (input ligand: arginine 13.2 mM), 14.2 nM under setting [1] and 13.8 nM under setting [2].
For the sequence “AAUUUGUCGGGUGAUACCAGCCUCGGCGCGUCUCGCGCUGAACAUGAGGAUCACCCAUGUGGCCCUUGGCAGCACAUGACAAAUC [Raracere]”, the “apparent KD of MS2 coat protein” value by setting is: (input ligand: arginine 13.2 mM) 367 nM; under setting [1], 557 nM; under setting [3], 677 nM.
As for “AAUUUUAACGGAAGGAGCGUCAAUUAAUACAAACAUGAGGAUCACCCAUGUCAAUACAUGAGACAGGUAGGUCGCCGUUAUUUGA [JR_AAArginiB_Sub024]”, the “apparent KD of MS2 coat protein” value turned out to be 23.9 nM (input ligand: arginine 13.2 mM); 22.1 nM (input ligand: none); 28 nM under setting [1]; 21.7 nM under setting [2]; 23.3 nM under setting [3].
As for “ACACAAUACAUGAGGAUCACCCAUGUAAAACGAGGACCGGUACGGCCGCCACUCGAAUACUGUAAUCCUCGGAAUAUUAAGUGAA [JR_ExcTryptA_Sub002]”, the “apparent KD of MS2 coat protein” value (input ligand: arginine 13.2 mM) stood at 28.7 nM, the “apparent KD of MS2 coat protein” value under setting [1] turned out to be 57.1 nM and the “apparent KD of MS2 coat protein” value under setting [2] is 61.6 nM.
For “ACACAUGAGGAUCACCCAUGUGCCCAUGAAGGAGCGUGGGAAACCACAGGUAGGUCGCAUGACAUGAGGAUCACCCAUGUUUAUU [Astarte]”, the “apparent KD of MS2 coat protein” value came out at 29 nM (input ligand: arginine 13.2 mM); 41.9 nM (input ligand: none); 44.9 nM under setting [1]; 39.7 nM under setting [2]; 41.9 nM under setting [3].
